Patent US20220177587A1, “METHODS AND USES OF VARIANT CD80 FUSION PROTEINS AND RELATED CONSTRUCTS” (Alpine Immune Sciences, Inc., priority 2018, published 2022)

Legend:
huCTLA4 = huCTLA4 (Homo sapiens, UniProt P16410); experiment: Flow binding to CHO cells stably expressing CTLA4; design: huCTLA4 and huPD-L1, full-length mammalian surface expression constructs were generated; expressed in transfected cells; host or cells: CHO cells, lentiviral transduction, sorted to >98% purity; conditions: for CTLA4 Fold change to WT CD80: MFI ratio to WT CD80 ECD-Fc (R&D) at 33.3 nM
How it was run: (§1)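 Cells were first blocked in PBS with 1% BSA and 0.1% sodium azide. Primary staining with fusion protein ran 45 min on ice, and secondary staining with PE anti-human Fc at 1:150 ran 30 min on ice.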

CD28 [1] = target: T1, CD28 (Homo sapiens, UniProt P10747); experiment: Flow binding to Jurkat/IL2 reporter cells (CD28); design: host or cells: Jurkat cells expressing an IL-2-luciferase reporter; conditions: for CD28 Fold change to WT CD80: MFI ratio to WT CD80 ECD-Fc (R&D) at 33.3 nM
How it was run: as §1

CD28 [2] = target: T1, CD28; experiment: Jurkat/IL2 + K562/OKT3/PD-L1 reporter assay; format: cell-based; design: host or cells: Jurkat cells expressing an IL-2-luciferase reporter; conditions: K562/OKT3/PD-L1 aAPC, 50 nM; for Relative Luciferase Units (RLU), CD80-Fe Cone 50 nM / Fold Increase over WT CD80-IgV-Fe: Table E8
huPD-L1 = huPD-L1 (Homo sapiens, UniProt Q9NZQ7); experiment: Flow binding to CHO cells stably expressing PD-L1; design: huCTLA4 and huPD-L1, full-length mammalian surface expression constructs were generated; expressed in transfected cells; host or cells: CHO cells, lentiviral transduction, sorted to >98% purity; conditions: for PD-L1 Fold change to WT CD80: MFI ratio to WT CD80 ECD-Fc (R&D) at 33.3 nM; for Ratio of PDL1:CD28: binding to PD-L1 compared to binding to CD28
How it was run: as §1

CD28 [3] = target: T1, CD28; experiment: Jurkat/IL2 + CHO/OKT3 +/- PD-L1 reporter assay: PD-L1-dependent CD28 costimulation; format: cell-based; design: host or cells: Jurkat cells expressing an IL-2-luciferase reporter; conditions: Table E22; Jurkat/IL2 + CHO/OKT3/PD-L1; CD80 Conc 5.0 nM
How it was run: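 Readout is relative luminescence from lysed cocultures: test protein given 15 min at room temperature to Jurkat cells before adding CHO artificial APCs displaying OKT3 alone or OKT3 plus PD-L1, then 5 h at 37 °C, 5% CO2.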

[4] = Table E4, 33.3 nM variant CD80 IgV-Fc, CHO cells stably expressing CTLA4
[5] = Table E4, CHO cells stably expressing PD-L1

huCTLA4, sequence (P16410 36-223): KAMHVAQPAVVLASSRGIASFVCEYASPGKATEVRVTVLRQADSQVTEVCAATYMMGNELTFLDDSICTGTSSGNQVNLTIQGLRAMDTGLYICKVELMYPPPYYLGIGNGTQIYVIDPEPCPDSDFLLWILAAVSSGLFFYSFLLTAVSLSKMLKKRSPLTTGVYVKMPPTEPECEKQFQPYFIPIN
huPD-L1, sequence (Q9NZQ7 19-290): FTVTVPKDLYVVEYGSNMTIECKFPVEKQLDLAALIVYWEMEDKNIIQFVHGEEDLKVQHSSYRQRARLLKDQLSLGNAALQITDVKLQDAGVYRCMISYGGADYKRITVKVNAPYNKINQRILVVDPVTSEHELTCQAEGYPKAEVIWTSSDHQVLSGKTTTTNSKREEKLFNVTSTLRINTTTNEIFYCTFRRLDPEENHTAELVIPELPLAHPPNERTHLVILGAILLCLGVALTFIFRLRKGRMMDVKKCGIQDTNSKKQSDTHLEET

Molecule	CTLA4 MFI at 33.3 nM (huCTLA4; [4])	CD28 MFI at 33.3 nM (CD28 [1]; Table E4, Jurkat cells (CD28))	Relative Luciferase Units (RLU), CD80-Fe Cone 50 nM (CD28 [2]) [RLU]	PD-L1 MFI at 33.3 nM (huPD-L1; [5])	further results
V22A/E35D/M47I/Y87N (protein, CD80 v253 ECD) VIHVTKEVKEVATLSCGHNVSAEELAQTRIYWQKDKKMVLTMMSGDINIWPEYKNRTIFDITNNLSIVILALRPSDEGTYECVVLKNEKDAFKREHLAEVTLSVKADFPTPSISDFETPTSNIRRIICSTSGGFPEPHLSWLENGEELNAINTTVSQDPETELYAVSSKLDFNMTTNHSFMCLIKYGHLRVNQTFNWNTTKQEHFPDN	245711	15299	1388	–	–
V22D/E35D/M47L/L85Q (protein, CD80 v261 ECD) VIHVTKEVKEVATLSCGHNVSDEELAQTRIYWQKDKKMVLTMMSGDLNIWPEYKNRTIFDITNNLSIVILALRPSDEGTYECVVQKYEKDAFKREHLAEVTLSVKADFPTPSISDFETPTSNIRRIICSTSGGFPEPHLSWLENGEELNAINTTVSQDPETELYAVSSKLDFNMTTNHSFMCLIKYGHLRVNQTFNWNTTKQEHFPDN	–	542	1142	–	–
V22L/Q27H/E35D/M47I/A71G (protein, CD80 v274 ECD) VIHVTKEVKEVATLSCGHNVSLEELAHTRIYWQKDKKMVLTMMSGDINIWPEYKNRTIFDITNNLSIVILGLRPSDEGTYECVVLKYEKDAFKREHLAEVTLSVKADFPTPSISDFETPTSNIRRIICSTSGGFPEPHLSWLENGEELNAINTTVSQDPETELYAVSSKLDFNMTTNHSFMCLIKYGHLRVNQTFNWNTTKQEHFPDN	151600	7269	1123	–	–
E35D/M47L/L85Q: variant CD80 IgV-Fc, IgV SEQ ID NO:418 (protein) VIHVTKEVKEVATLSCGHNVSVEELAQTRIYWQKDKKMVLTMMSGDLNIWPEYKNRTIFDITNNLSIVILALRPSDEGTYECVVQKYEKDAFKREHLAEVTLSVKAD	–	–	–	–	PD-L1 MFI at 33.3 nM (huPD-L1; Table E3): 33200; PD-L1 MFI at 33.3 nM (huPD-L1; Table E19, CHO cells stably expressing PD-L1): 6097; CTLA4 MFI at 33.3 nM (huCTLA4; Table E3, 33.3 nM): 336179; CTLA4 MFI at 33.3 nM (huCTLA4; Table E19, CHO cells stably expressing CTLA4, 33.3 nM): 12909; CD28 MFI at 33.3 nM (CD28 [1]; Table E3): 646; CD28 MFI at 33.3 nM (CD28 [1]; Table E19, Jurkats (CD28)): 46.3; Relative Luciferase Units (RLU), CD80-Fc Conc. 50 nM (CD28 [2]; Table E7): 2852 RLU
A26E/E35D/M47L/A71G (protein) VIHVTKEVKEVATLSCGHNVSVEELEQTRIYWQKDKKMVLTMMSGDLNIWPEYKNRTIFDITNNLSIVILGLRPSDEGTYECVVLKYEKDAFKREHLAEVTLSVKAD	–	2161	1748	–	CD28 MFI at 33.3 nM (CD28 [1]; Table E20, Jurkats (CD28)): 236; Relative Luciferase Units (RLU), CD80 Conc 5.0 nM (CD28 [3]): 766 RLU
H18Y/A26E/E35D/M47L/L85Q/D90G (protein, UniProt P33681 35-288, looked up, variant H18Y A26E E35D M47L L85Q D90G) T-lymphocyte activation …: VIHVTKEVKEVATLSCGYNVSVEELEQTRIYWQKDKKMVLTMMSGDLNIWPEYKNRTIFDITNNLSIVILALRPSDEGTYECVVQKYEKGAFKREHLAEVTLSVKADFPTPSISDFEIPTSNIRRIICSTSGGFPEPHLSWLENGEELNAINTTVSQDPETELYAVSSKLDFNMTTNHSFMCLIKYGHLRVNQTFNWNTTKQEHFPDNLLPSWAITLISVNGIFVICCLTYCFAPRCRERRRNERLRRESVRPV	230588	3540	1506	–	–
R29H/E35D/M43V/M47I/I49V (protein, UniProt P33681 35-288, looked up, variant R29H E35D M43V M47I I49V) T-lymphocyte activation …: VIHVTKEVKEVATLSCGHNVSVEELAQTHIYWQKDKKMVLTMVSGDINVWPEYKNRTIFDITNNLSIVILALRPSDEGTYECVVLKYEKDAFKREHLAEVTLSVKADFPTPSISDFEIPTSNIRRIICSTSGGFPEPHLSWLENGEELNAINTTVSQDPETELYAVSSKLDFNMTTNHSFMCLIKYGHLRVNQTFNWNTTKQEHFPDNLLPSWAITLISVNGIFVICCLTYCFAPRCRERRRNERLRRESVRPV	4694	336	227	1590	PD-L1 Fold change to WT CD80 (huPD-L1; Table E4): 0.13; Ratio of PDL1:CD28 (huPD-L1; Table E4): 5; CTLA4 Fold change to WT CD80 (huCTLA4; Table E4): 0.03; CD28 Fold change to WT CD80 (CD28 [1]; Table E4): 0.02; Fold Increase over WT CD80-IgV-Fe (CD28 [2]): 1.1

More lines, main results first:

CTLA4 MFI at 33.3 nM (huCTLA4; [4])	CD28 MFI at 33.3 nM (CD28 [1]; Table E4, Jurkat cells (CD28))	Relative Luciferase Units (RLU), CD80-Fe Cone 50 nM (CD28 [2]) [RLU]	PD-L1 MFI at 33.3 nM (huPD-L1; [5])	Molecule	further results
116798	644	213	31151	Q33L/E35D/M47I/N48D/A71G (protein, UniProt P33681 35-288, looked up, variant Q33L E35D M47I N48D A71G) T-lymphocyte activation …: VIHVTKEVKEVATLSCGHNVSVEELAQTRIYWLKDKKMVLTMMSGDIDIWPEYKNRTIFDITNNLSIVILGLRPSDEGTYECVVLKYEKDAFKREHLAEVTLSVKADFPTPSISDFEIPTSNIRRIICSTSGGFPEPHLSWLENGEELNAINTTVSQDPETELYAVSSKLDFNMTTNHSFMCLIKYGHLRVNQTFNWNTTKQEHFPDNLLPSWAITLISVNGIFVICCLTYCFAPRCRERRRNERLRRESVRPV	PD-L1 Fold change to WT CD80 (huPD-L1; Table E4): 2.62; Ratio of PDL1:CD28 (huPD-L1; Table E4): 48; CTLA4 Fold change to WT CD80 (huCTLA4; Table E4): 0.74; CD28 Fold change to WT CD80 (CD28 [1]; Table E4): 0.04; Fold Increase over WT CD80-IgV-Fe (CD28 [2]): 1.0
–	6237	1216	37146	E35D/M47V/A71G/E88D (protein, UniProt P33681 35-288, looked up, variant E35D M47V A71G E88D) T-lymphocyte activation …: VIHVTKEVKEVATLSCGHNVSVEELAQTRIYWQKDKKMVLTMMSGDVNIWPEYKNRTIFDITNNLSIVILGLRPSDEGTYECVVLKYDKDAFKREHLAEVTLSVKADFPTPSISDFEIPTSNIRRIICSTSGGFPEPHLSWLENGEELNAINTTVSQDPETELYAVSSKLDFNMTTNHSFMCLIKYGHLRVNQTFNWNTTKQEHFPDNLLPSWAITLISVNGIFVICCLTYCFAPRCRERRRNERLRRESVRPV	–
247703	4095	1438	35710	E35D/M47I/L85Q/D90G (protein, UniProt P33681 35-288, looked up, variant E35D M47I L85Q D90G) T-lymphocyte activation …: VIHVTKEVKEVATLSCGHNVSVEELAQTRIYWQKDKKMVLTMMSGDINIWPEYKNRTIFDITNNLSIVILALRPSDEGTYECVVQKYEKGAFKREHLAEVTLSVKADFPTPSISDFEIPTSNIRRIICSTSGGFPEPHLSWLENGEELNAINTTVSQDPETELYAVSSKLDFNMTTNHSFMCLIKYGHLRVNQTFNWNTTKQEHFPDNLLPSWAITLISVNGIFVICCLTYCFAPRCRERRRNERLRRESVRPV	PD-L1 Fold change to WT CD80 (huPD-L1; Table E4): 3.01; Ratio of PDL1:CD28 (huPD-L1; Table E4): 9; CTLA4 Fold change to WT CD80 (huCTLA4; Table E4): 1.57; CD28 Fold change to WT CD80 (CD28 [1]; Table E4): 0.23; Fold Increase over WT CD80-IgV-Fe (CD28 [2]): 7.0
–	6360	1190	36216	E35D/M47V/A71G (protein, UniProt P33681 35-288, looked up, variant E35D M47V A71G) T-lymphocyte activation …: VIHVTKEVKEVATLSCGHNVSVEELAQTRIYWQKDKKMVLTMMSGDVNIWPEYKNRTIFDITNNLSIVILGLRPSDEGTYECVVLKYEKDAFKREHLAEVTLSVKADFPTPSISDFEIPTSNIRRIICSTSGGFPEPHLSWLENGEELNAINTTVSQDPETELYAVSSKLDFNMTTNHSFMCLIKYGHLRVNQTFNWNTTKQEHFPDNLLPSWAITLISVNGIFVICCLTYCFAPRCRERRRNERLRRESVRPV	–
–	15452	1581	29803	E35D/M47I/Y87Q/K89E (protein, UniProt P33681 35-288, looked up, variant E35D M47I Y87Q K89E) T-lymphocyte activation …: VIHVTKEVKEVATLSCGHNVSVEELAQTRIYWQKDKKMVLTMMSGDINIWPEYKNRTIFDITNNLSIVILALRPSDEGTYECVVLKQEEDAFKREHLAEVTLSVKADFPTPSISDFEIPTSNIRRIICSTSGGFPEPHLSWLENGEELNAINTTVSQDPETELYAVSSKLDFNMTTNHSFMCLIKYGHLRVNQTFNWNTTKQEHFPDNLLPSWAITLISVNGIFVICCLTYCFAPRCRERRRNERLRRESVRPV	–
